Results as given in paper PMC11408855, “The structure of the SufS–SufE complex reveals interactions driving protected persulfide transfer in iron-sulfur cluster biogenesis” (The Journal of Biological Chemistry, 2024).
Where a chain is given by its changes, count along the chain named. Numbers in names are those of the source.

Experiments:
Assay in all cases: fluorescence polarisation; 100 nM BODIPY-FL-labeled EcSufE titrated with EcSufS; 50 mM Mops pH 8.0, 150 mM NaCl, 0.1 mg/ml bovine serum albumin, 25 °C, 30 min; absence of cysteine; apparent KD
Conditions in all cases: both partners purified
[1] = molecular target: T1, N353A EcSufS, C-terminal his-tagged (Escherichia coli, UniProt P77444 1-406, N353A, PLP (pyridoxal 5'-phosphate) cofactor)
T1 construct: EcSufS of Escherichia coli, UniProt P77444, with N353A; also called N353A SufS; source: E. coli BL21(DE3)Δsuf, pET44, autoinduction, purified (Ni2+ HisTrap HP); not shown: His tag, C-terminal, kept
T1 sequence: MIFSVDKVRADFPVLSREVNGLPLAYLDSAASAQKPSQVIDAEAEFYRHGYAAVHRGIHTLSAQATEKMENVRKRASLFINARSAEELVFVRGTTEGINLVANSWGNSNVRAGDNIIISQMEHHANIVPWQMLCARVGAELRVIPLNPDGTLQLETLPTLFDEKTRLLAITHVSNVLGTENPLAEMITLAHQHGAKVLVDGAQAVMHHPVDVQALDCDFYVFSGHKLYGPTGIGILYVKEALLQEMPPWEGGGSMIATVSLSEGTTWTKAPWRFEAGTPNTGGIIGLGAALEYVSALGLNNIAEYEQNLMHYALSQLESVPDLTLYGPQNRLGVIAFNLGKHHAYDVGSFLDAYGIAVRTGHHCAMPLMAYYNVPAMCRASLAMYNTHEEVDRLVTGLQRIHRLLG

[2] = molecular target: T2, Y354A EcSufS, C-terminal his-tagged (Escherichia coli, UniProt P77444 1-406, Y354A, PLP (pyridoxal 5'-phosphate) cofactor)
T2 construct: EcSufS of Escherichia coli, UniProt P77444, with Y354A; also called Y354A SufS; source: E. coli BL21(DE3)Δsuf, pET44, autoinduction, purified (Ni2+ HisTrap HP); not shown: His tag, C-terminal, kept
T2 sequence: T1 sequence with A353N, Y354A

[3] = molecular target: T3, Y345A EcSufS, C-terminal his-tagged (Escherichia coli, UniProt P77444 1-406, Y345A, PLP (pyridoxal 5'-phosphate) cofactor)
T3 construct: EcSufS of Escherichia coli, UniProt P77444, with Y345A; also called Y345A SufS; source: E. coli BL21(DE3)Δsuf, pET44, autoinduction, purified (Ni2+ HisTrap HP); not shown: His tag, C-terminal, kept
T3 sequence: T1 sequence with Y345A, A353N

[4] = molecular target: T4, F350A EcSufS, C-terminal his-tagged (Escherichia coli, UniProt P77444 1-406, F350A, PLP (pyridoxal 5'-phosphate) cofactor)
T4 construct: EcSufS of Escherichia coli, UniProt P77444, with F350A; also called F350A SufS; source: E. coli BL21(DE3)Δsuf, pET44, autoinduction, purified (Ni2+ HisTrap HP); not shown: His tag, C-terminal, kept
T4 sequence: T1 sequence with F350A, A353N

B1: BODIPY-FL-labeled C51A/E107C EcSufE (natural protein, Escherichia coli)
chain: MALLPDKEKLLRNFLRCANWEEKYLYIIELGQRLPELRDEDRSPQNSIQGAQSQVWIVMRQNAQGIIELQGDSDAAIVKGLIAVVFILYDQMTPQDIVNFDVRPWFCKMALTQHLTPSRSQGLEAMIRAIRAKAAALS
modifications: BODIPY-FL maleimide label (labeling efficiency 60 to 80%)
notes: EcSufE, transpersulfurase SufE of Escherichia coli, UniProt P76194, with C51A and E107C; also called "WT" EcSufE (double mutant background); C51A/E107C EcSufE control
In the case of B1, the Kd [1] is reported as 60 nM, the Kd [2] is reported as over 20 µM and the Kd [3] is reported as over 20 µM. The Kd [4] was over 40 µM.
